Results on one molecule are retold here after patent publication US20240035010, “COMPOSITIONS COMPRISING A VARIANT POLYPEPTIDE AND USES THEREOF” (Arbor Biotechnologies, Inc., published 2024).

Data set [1] has as its target T1, variant nuclease E736G combination (P14R, D32R, I61R, E311R, E736G).
T1 chain: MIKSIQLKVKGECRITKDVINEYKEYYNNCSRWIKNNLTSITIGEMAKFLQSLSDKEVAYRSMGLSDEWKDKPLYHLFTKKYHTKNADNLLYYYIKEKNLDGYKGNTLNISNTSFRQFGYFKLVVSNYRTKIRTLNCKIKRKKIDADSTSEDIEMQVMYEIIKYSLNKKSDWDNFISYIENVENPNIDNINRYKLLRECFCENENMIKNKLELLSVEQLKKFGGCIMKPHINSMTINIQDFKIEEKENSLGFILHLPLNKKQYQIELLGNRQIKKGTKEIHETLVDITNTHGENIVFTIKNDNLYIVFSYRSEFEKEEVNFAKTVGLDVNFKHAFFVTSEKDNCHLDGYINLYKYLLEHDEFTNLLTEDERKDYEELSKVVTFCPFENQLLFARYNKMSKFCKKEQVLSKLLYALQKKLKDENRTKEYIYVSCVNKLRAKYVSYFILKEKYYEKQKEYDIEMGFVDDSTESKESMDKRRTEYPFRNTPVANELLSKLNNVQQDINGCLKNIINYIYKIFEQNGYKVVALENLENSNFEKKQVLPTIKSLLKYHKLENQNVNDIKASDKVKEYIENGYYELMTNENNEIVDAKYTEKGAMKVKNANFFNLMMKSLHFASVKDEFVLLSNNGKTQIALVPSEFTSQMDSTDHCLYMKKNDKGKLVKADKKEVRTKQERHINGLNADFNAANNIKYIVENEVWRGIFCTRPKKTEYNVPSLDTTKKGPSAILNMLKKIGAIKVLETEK
The data set is described as follows: cell_activity; PAM 5'-TTTG-3'. To be noted: tags: pcDNA3.1 expression. The essentials: (§1)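 HEK293T cells were lipofected with nuclease plasmid (pcDNA3.1 backbone) plus RNA guide plasmid, with guide omitted in negative controls. After ~72 h cells were lysed in QuickExtract and % indels were derived from NGS reads, averaged over two bioreplicates and two technical replicates.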

For data set [2], the target named is T2, variant nuclease 7 substitutions D590G/E154G/E736G (P14R, D32R, I61R, E311R, D590G, E154G, E736G).
T2 chain: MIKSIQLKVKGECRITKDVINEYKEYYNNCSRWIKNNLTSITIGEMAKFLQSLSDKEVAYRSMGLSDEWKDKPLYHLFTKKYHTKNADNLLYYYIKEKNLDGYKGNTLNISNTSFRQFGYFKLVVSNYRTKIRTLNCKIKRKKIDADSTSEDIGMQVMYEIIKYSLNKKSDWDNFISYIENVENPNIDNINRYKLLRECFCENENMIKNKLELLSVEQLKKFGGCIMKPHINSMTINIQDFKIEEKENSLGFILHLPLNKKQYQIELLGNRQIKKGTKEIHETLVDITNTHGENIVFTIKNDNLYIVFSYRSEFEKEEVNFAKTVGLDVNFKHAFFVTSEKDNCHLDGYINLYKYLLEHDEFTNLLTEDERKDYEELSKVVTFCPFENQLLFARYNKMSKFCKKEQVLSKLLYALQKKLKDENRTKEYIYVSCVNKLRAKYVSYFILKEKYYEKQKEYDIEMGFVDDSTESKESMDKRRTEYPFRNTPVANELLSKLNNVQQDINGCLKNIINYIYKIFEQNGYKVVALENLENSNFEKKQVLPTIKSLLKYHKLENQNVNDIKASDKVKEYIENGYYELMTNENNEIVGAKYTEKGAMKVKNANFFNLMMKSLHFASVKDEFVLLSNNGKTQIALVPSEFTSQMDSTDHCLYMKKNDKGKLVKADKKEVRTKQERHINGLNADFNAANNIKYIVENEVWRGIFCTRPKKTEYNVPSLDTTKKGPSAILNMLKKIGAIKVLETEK
The data set is described as follows: cell_activity; PAM 5'-TTTG-3'. The conditions noted are these: tags: pcDNA3.1 expression. The essentials:
as §1

B1: AAVS1 crRNA ; AAVS1 target (ssRNA ; dsDNA)
RNA: CUUGUUGUAUAUGUCCUUUUAUAGGUAUUAAACAACUGAGAAUGGUGCGUCCUAGG
DNA 1: TGAGAATGGTGCGTCCTAGG
DNA 2: CCTAGGACGCACCATTCTCA
Regarding B1, the results for the indel activity in data set [1] and in data set [2] were 5.28 fold of WT and 5.91 fold of WT, respectively.
